Results published in PMC9481577, “Structures reveal a key mechanism of WAVE regulatory complex activation by Rac1 GTPase” (Nature Communications, 2022).

Target: T1, HSPC300 (subunit of the WRC) (human, UniProt Q8WUW1 1-75)
T1 construct: HSPC300, human, full length; source: E. coli, purified within the WRC
T1 sequence (looked up): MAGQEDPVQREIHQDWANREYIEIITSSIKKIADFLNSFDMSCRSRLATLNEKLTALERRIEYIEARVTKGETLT
Assay: cryo-EM structure; WRC^apo at 1.2 µM in 10 mM HEPES-KOH pH 7.0, 50 mM KCl, 1 mM MgCl2, 1 mM DTT, 5% (v/v) glycerol; 3.0 Å
Conditions: both partners purified

- binding result: binds
B1: WAVE1(1-230)-(GGS)6-WCA(485-559) (subunit of the WRC) (domain or fragment, human)
chain: MPLVKRNIDPRHLCHTALPRGIKNELECVTNISLANIIRQLSSLSKYAEDIFGELFNEAHSFSFRVNSLQERVDRLSVSVTQLDPKEEELSLQDITMRKAFRSSTIQDQQLFDRKTLPIPLQETYDVCEQPPPLNILTPYRDDGKEGLKFYTNPSYFFDLWKEKMLQDTEDKRKEKRKQKQKNLDRPHEPEKVPRAPHDRRREWQKLAQGPELAEDDANLLHKHIEVANGGGSGGSGGSGGSGGSGGSKRHPSTLPVISDARSVLLEAIRKGIQLRKVEEQREQEAKHERIENDVATILSRRIAVEYSDSEDDSEFDEVDWLE
notes: WAVE1, human, residues 1-230; (GGS)6 linker, written out from the printed formula; WAVE1, human, WCA, residues 485-559; source: E. coli, purified within the WRC
